According to patent publication US20180186893A1 (NATIONAL RESEARCH COUNCIL OF CANADA, published 2018):

B1: c12H8-DM1 (antibody, V domains shown)
VH: QIQLVQSGPELKKPGETVKISCKASGYTFTNYGMNWVQQAPGKGLKWMGWINTYTGEPTYADDFKGRFAFSLETSASTAYLQINNLKNEDMATYFCARGGIATPTSYWGQGTTLTVSS
VL: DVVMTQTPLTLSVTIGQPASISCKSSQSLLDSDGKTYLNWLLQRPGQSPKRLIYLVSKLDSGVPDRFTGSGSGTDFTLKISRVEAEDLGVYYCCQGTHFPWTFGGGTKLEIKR
modifications: DM1 (mertansine) conjugated with SMCC-DM1, target DAR 3.5; sites not stated
B2: mAb 12H8 (hybridoma-derived) (antibody, mouse IgG1, V domains shown)
VH: B1 VH
VL: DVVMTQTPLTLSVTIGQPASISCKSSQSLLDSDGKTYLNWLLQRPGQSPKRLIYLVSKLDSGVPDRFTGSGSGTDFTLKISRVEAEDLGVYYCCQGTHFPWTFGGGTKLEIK
notes: also called clone 12H8 (fusion F101); 12HD8

Columns and labels:
[1] = target: human Carbonic Anhydrase IX (hCA-IX) (human, UniProt Q16790 38-459); assay: cell-based or functional assay
[2] = target: T1, rhCA-IX ECD mixture (monomer + dimer) (human, UniProt Q16790 38-414); assay: reverse phase protein array, purified antigen; RPPA; ratio native/denatured, purified antigen
Description: Slides were assembled in the 16-well incubation chambers (Whatman) and in the multi-slide frame (Whatman) that is a reusable holder for up to four slides. In this assembly, a liquid-tight well was created on top of each individual array pad. To block nonspecific binding, 100 μl of blocking solution (1×PBS/3% BSA/0.1% Tween20) was added to each well. Each chamber was sealed with aluminum tape to prevent evaporation and incubated (1 h, RT) with gentle agitation. The nitrocellulose pads were never allowed to dry from this step on. mAb were prepared by mixing 30 μl of each crude hybridoma supernatant with 30 μl of incubation solution (1×PBS/2% BSA/0.05% Tween20/Rabbit anti-GFP-AlexaFluor555 (0.9 μg/ml)). Blocking solution was aspired and replaced by the diluted mAb solution, incubation chambers were sealed with aluminum tape, and incubated while protected from light (2 h RT, 130 rpm shaking). mAb solutions were removed, wells were washed three times with 100 μl washing solution (1×PBS/0.1% Tween20), and the chambers were dismantled. At this point, slides were washed three times 5 minutes in 1×PBS/0.1% Tween20 followed by one 5 minutes wash in 1×PBS. After the last wash, excess liquid was removed without letting the nitrocellulose dry. […]

[3] = target: T1, rhCA-IX ECD mixture (monomer + dimer); assay: SPR (ProteOn XPR36), mAb captured by anti-mouse Fc, 60 nM antigen flowed, 1:1 model, 25 C
Description: (§1) All SPR assays were carried out using a BioRad ProteOn XPR36 instrument (Bio-Rad Laboratories (Canada) Ltd. (Mississauga, ON)) with PBST running buffer at a temperature of 25° C. The polyclonal goat anti-mouse Fc (Jackson Immuno Research Laboratories Inc.) capture surface was generated using a GLC sensorchip activated by a 1:10 dilution of the standard BioRad sNHS/EDC solutions injected for 140 s at 100 μL/min in the analyte (horizontal) direction. Immediately after the activation, a 10 μg/mL solution of anti-human Fc antibody in 10 mM NaOAc pH 4.5 was injected in the analyte (horizontal) direction at a flow rate of 25 μL/min until approximately 4000 resonance units (RUs) were immobilized. Remaining active groups were quenched by a 140 s injection of 1M ethanolamine at 100 μL/min in the horizontal direction; this also ensures mock-activated interspots are created for blank referencing.
(§2) Sensorgrams were aligned and double-referenced using the buffer blank injection and interspots, and the resulting sensorgrams were analyzed using ProteOn Manager software v3.1. The double-referenced sensorgrams were fit to the 1:1 binding model to determine the rate constants for association and dissociation (kₐ and kd) and the corresponding affinity (KD).

rhCA-IX ECD dimer = rhCA-IX ECD dimer (human, UniProt Q16790 38-414); assay: as above
Description: as §1, §2

Row | Binder | IC50 (nM), cell viability of sk-rc-52 cells, ADC assay [1] [nM] | Ratio (A)/(B), native over denatured [2] | koff [3] [s⁻¹] | Kd (rhCA-IX ECD dimer) [nM]
1 | B1 | 17.9 | – | – | –
2 | B2 | – | 1.11 | < 1e-05 | 0.143
